Biological target: the molecule itself
Test: crystal structure; Rv3722c (~40 mg/mL) co-crystallised with 5 mM L-glutamic acid or 10 mM L-kynurenine, sitting drop vapor diffusion at 17 °C

B1: Rv3722c (aspartate aminotransferase of Mycobacterium tuberculosis) (enzyme)
chain: SFDSLSPQELAALHARHQQDYAALQGMKLALDLTRGKPSAEQLDLSNQLLSLPGDDYRDPEGTDTRNYGGQHGLPGLRAIFAELLGIAVPNLIAGNNSSLELMHDIVAFSMLYGGVDSPRPWIQEQDGIKFLCPVPGYDRHFAITETMGIEMIPIPMLQDGPDVDLIEELVAVDPAIKGMWTVPVFGNPSGVTYSWETVRRLVQMRTAAPDFRLFWDNAYAVHTLTLDFPRQVDVLGLAAKAGNPNRPYVFASTSKITFAGGGVSFFGGSLGNIAWYLQYAGKKSIGPDKVNQLRHLRFFGDADGVRLHMLRHQQILAPKFALVAEVLDQRLSESKIASWTEPKGGYFISLDVLPGTARRTVALAKDVGIAVTEAGASFPYRKDPDDKNIRIAPSFPSVPDLRNAVDGLATCALLAATETLLNQGLASSAPNVR
notes: also called AspAT
binding result: binds
